# B1: TAT-LAD fusion protein (His tag, TAT peptide, human LAD precursor) (protein)
# chain: MGSSHHHHHHSSGLVPRGSHMRKKRRQRRRGSDPQSWSRVYCSLAKRGHFNRISHGLQGLSAVPLRTYADQPIDADVTVIGSGPGGYVAAIKAAQLGFKTVCIEKNETLGGTCLNVGCIPSKALLNNSHYYHMAHGTDFASRGIEMSEVRLNLDKMMEQKSTAVKALTGGIAHLFKQNKVVHVNGYGKITGKNQVTATKADGGTQVIDTKNILIATGSEVTPFPGITIDEDTIVSSTGALSLKKVPEKMVVIGAGVIGVELGSVWQRLGADVTAVEFLGHVGGVGIDMEISKNFQRILQKQGFKFKLNTKVTGATKKSDGKIDVSIEAASGGKAEVITCDVLLVCIGRRPFTKNLGLEELGIELDPRGRIPVNTRFQTKIPNIYAIGDVVAGPMLAHKAEDEGIICVEGMAGGAVHIDYNCVPSVIYTHPEVAWVGKSEEQLKEEGIEYKVGKFPFAANSRAKTNADTDGMVKILGQKSTDRVLGAHILGPGAGEMVNEAALALEYGASCEDIARVCHAHPTLSEAFREANLAASFGKSINFE
# Biological target: pyruvate dehydrogenase complex (PDHC) immuno-captured from tissue lysates of E3 mice
protein,measurement,value
B1,"PDHC enzymatic activity of immuno-captured PDHC, the three organs at 24 hours post-treatment, percent increase",increase in PDHC enzymatic activity (40-65%) was also evident in the three organs at 24 hours post-treatment
